Data as given in patent US20180327500A1 (SYMPHOGEN A S, published 2018).

T1: Mouse blade 2
T1 construct: human/mouse chimera on transfected HEK293 cells; also called Mouse blade 2-IPT4
T1 MET ECD-SV5-GPI fusion: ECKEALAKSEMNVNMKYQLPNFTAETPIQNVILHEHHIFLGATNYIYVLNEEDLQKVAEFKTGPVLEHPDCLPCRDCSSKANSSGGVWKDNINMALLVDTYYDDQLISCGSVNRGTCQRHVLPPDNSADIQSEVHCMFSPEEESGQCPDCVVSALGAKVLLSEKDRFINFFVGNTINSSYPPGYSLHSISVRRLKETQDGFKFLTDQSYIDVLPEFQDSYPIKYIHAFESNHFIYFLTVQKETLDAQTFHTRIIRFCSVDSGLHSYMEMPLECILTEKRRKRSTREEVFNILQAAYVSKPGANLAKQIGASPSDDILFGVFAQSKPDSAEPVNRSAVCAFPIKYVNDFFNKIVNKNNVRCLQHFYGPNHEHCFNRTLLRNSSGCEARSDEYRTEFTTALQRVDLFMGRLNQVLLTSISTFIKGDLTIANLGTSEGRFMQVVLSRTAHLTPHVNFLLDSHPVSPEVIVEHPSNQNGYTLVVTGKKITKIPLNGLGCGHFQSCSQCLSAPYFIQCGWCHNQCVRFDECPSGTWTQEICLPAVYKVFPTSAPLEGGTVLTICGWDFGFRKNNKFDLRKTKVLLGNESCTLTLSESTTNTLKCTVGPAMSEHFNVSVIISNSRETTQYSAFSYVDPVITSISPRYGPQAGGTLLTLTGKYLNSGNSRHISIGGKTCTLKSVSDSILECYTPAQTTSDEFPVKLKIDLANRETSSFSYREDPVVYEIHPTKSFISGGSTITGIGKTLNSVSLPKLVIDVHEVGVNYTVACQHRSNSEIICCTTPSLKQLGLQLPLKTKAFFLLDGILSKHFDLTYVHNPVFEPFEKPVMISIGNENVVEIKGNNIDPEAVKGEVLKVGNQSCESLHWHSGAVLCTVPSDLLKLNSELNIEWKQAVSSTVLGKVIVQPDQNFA

T2: Mouse Blade 1-6
T2 construct: human/mouse chimera on transfected HEK293 cells; also called AA 25-479
T2 MET ECD-SV5-GPI fusion: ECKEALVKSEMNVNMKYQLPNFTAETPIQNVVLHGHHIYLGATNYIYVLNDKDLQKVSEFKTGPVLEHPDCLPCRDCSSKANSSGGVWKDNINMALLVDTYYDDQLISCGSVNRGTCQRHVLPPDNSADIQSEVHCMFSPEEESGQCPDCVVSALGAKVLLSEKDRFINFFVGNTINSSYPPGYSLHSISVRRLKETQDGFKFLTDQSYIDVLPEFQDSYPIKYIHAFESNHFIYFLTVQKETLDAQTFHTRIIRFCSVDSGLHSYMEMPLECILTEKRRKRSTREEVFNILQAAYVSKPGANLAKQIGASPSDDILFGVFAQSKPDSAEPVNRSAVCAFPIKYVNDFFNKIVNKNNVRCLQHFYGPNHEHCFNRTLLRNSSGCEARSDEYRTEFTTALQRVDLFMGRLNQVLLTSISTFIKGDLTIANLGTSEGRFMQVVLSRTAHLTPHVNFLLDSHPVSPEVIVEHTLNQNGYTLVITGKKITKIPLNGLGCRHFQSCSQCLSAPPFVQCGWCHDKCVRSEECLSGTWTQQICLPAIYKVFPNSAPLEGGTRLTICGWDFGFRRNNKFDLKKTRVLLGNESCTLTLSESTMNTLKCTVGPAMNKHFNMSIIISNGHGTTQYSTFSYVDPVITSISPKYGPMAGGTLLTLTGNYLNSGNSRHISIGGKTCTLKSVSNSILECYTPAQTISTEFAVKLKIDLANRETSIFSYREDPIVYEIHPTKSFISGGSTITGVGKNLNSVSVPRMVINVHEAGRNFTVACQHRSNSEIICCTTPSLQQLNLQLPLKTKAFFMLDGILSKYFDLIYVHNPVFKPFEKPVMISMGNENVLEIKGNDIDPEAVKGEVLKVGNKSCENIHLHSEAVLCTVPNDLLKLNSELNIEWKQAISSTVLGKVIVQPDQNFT

T3: Mouse Blade 1-7
T3 construct: human/mouse chimera on transfected HEK293 cells; also called AA 25-513
T3 MET ECD-SV5-GPI fusion: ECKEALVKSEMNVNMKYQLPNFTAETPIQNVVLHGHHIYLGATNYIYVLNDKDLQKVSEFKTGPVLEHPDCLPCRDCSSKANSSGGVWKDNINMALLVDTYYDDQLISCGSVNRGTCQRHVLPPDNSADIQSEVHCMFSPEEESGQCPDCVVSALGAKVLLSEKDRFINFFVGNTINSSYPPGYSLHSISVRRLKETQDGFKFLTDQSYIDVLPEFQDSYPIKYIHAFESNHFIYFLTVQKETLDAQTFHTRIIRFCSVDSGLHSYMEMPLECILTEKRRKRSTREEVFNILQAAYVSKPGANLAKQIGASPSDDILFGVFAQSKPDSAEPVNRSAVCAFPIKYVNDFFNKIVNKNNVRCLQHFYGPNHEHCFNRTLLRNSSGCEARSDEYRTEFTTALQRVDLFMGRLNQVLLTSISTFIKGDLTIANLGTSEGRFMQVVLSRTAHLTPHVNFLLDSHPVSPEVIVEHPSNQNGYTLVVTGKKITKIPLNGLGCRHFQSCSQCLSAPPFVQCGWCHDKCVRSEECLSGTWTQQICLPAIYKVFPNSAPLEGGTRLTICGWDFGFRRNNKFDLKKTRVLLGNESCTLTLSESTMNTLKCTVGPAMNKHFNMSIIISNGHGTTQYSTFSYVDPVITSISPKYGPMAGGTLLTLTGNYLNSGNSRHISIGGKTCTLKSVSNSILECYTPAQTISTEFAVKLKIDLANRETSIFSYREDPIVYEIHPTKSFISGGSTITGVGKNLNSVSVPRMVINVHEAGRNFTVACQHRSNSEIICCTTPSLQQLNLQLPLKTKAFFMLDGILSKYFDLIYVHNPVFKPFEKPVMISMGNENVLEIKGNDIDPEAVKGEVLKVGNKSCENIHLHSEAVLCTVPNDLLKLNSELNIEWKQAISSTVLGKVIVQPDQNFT


Assays:
Assay in all cases: flow cytometry on transfected HEK293 cells;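 further: antibodies applied at 50 µg/ml, binding called specific when fluorescence exceeds the mean signal on a negative control chicken or mouse MET construct plus four SD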
[1] = target: T1, Mouse blade 2
Protocol: (§1) Cut-off values defined as the average fluorescence signal of all antibodies tested at 50 μg/ml to the negative control chicken or mouse MET construct+four standard deviations were employed to discriminate background binding from specific binding for the domain exchange or blade exchange constructs.

[2] = target: T2, Mouse Blade 1-6
Protocol: as §1

[3] = target: T3, Mouse Blade 1-7
Protocol: as §1

| binding result [1] | binding result [2] | binding result [3] | Binder |
| --- | --- | --- | --- |
| no binding (tested: 50 µg/ml) | no binding (tested: 50 µg/ml) | no binding (tested: 50 µg/ml) | humanized antibody 9338 (antibody, human IgG1, kappa, V domains shown, also called Hu9338; hu9338) VH: QVQLVQSGAEVKKPGSSVKVSCKASGYTFTSYWMHWVRQAPGQGLEWMGYINPSSGHIENNQKFKDRVTITADKSTSTAYMELSSLRSEDTAVYYCARGRFAYWGQGTLVTVSS VL: EIVLTQSPATLSLSPGERATLSCSASSSVSSGYLYWYQQKPGQAPRLLIYSTSNLASGIPARFSGSGSGTDFTLTISSLEPEDFAVYYCHQWSSYPFTFGSGTKLEIKR |
| no binding (tested: 50 µg/ml) | no binding (tested: 50 µg/ml) | no binding (tested: 50 µg/ml) | humanized antibody 9006 (antibody, human IgG1, kappa, V domains shown, also called Hu9006; hu9006) VH: QVQLVQSGSELKKPGASVKVSCKASGYTFTNFRMNWVKQAPGQGLKWMGWINTYTGEPTYVDDLKGRFVFSLDTSVSTAYLQISSLKAEDTAVYYCARKGIARAMDYWGQGTTVTVSS VL: DIVMTQSPDSLAVSLGERATINCKSSQSLLDSGNQKNYLAWYQQKPGQPPKLLIFGASTRESGVPDRFSGSGSGTDFTLTISSLQAEDVAVYYCQNDHSYPYTFGQGTKLEIKR |
